Measured values reported in PMC6215006.

Target: recombinant human macrophage-colony stimulating factor (human) (UniProt P09603)
UniProt P09603, sequence (P09603 36-181): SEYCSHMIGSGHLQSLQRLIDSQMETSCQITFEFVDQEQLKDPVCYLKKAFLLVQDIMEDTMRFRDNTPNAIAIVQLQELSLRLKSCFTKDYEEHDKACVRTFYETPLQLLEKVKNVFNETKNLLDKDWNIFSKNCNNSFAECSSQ

inhibition of the differentiation of bone marrow-derived osteoclast precursors into osteoclasts with M-CSF (30 ng/mL) and RANKL (100 ng/mL), TRAP(+) MNCs; maximum inhibitory dose [nM] | Substance
1 | mouse syndecan-4 ectodomain from HEK293E cells (from UniProt O35988 24-145) (domain or fragment)
1 | mouse syndecan-3 ectodomain from HEK293E cells (from UniProt Q64519 45-387) (domain or fragment)
1 | mouse syndecan-2 ectodomain from HEK293E cells (from UniProt P43407 19-145) (domain or fragment)
1 | mouse syndecan-1 ectodomain from HEK293E cells (from UniProt P18828 23-255) (domain or fragment)
